Source: patent US20260207766A1 (Bristol-Myers Squibb, published 2026)

T1: human CEACAM5 on cells (human, UniProt P06731 35-685)
T1 construct: Endogenous on MKN45, Ls174T, BxPC-3; overexpressed on HCT116; also called huCEACAM5; HCT116-huCEACAM5
T1 sequence: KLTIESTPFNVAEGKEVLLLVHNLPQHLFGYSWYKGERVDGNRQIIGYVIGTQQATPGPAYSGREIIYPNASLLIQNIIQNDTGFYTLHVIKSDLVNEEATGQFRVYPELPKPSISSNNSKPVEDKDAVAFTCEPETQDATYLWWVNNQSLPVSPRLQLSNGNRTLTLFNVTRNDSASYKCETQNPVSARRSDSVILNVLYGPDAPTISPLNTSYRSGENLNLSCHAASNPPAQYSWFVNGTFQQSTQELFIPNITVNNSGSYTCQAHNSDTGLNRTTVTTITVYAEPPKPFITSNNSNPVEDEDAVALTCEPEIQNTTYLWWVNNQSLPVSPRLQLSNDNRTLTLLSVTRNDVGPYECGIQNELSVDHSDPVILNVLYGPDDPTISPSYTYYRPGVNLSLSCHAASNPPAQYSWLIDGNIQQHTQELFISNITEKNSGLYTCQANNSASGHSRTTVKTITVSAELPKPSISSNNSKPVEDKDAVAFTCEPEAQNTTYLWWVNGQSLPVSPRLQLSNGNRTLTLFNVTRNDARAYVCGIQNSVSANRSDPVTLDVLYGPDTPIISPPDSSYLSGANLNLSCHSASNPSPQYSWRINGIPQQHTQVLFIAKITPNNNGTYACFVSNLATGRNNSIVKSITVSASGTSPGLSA

T2: human CEACAM6 on HCT116 cells (human, UniProt P40199 35-320)
T2 construct: whole, on cells; also called HCT116-huCEACAM6
T2 sequence (looked up): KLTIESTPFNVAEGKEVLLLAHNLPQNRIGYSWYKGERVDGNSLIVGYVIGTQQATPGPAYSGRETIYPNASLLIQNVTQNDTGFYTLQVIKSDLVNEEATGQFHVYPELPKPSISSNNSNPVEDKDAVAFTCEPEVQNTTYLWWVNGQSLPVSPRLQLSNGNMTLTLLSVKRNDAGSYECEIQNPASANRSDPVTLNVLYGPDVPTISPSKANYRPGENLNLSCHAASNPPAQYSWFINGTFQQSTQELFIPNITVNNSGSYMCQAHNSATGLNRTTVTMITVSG

T3: human CEACAM1 on CHO-S cells (human, UniProt P13688 35-526)
T3 construct: whole, on cells; also called CHO-S-huCEACAM1
T3 sequence (looked up): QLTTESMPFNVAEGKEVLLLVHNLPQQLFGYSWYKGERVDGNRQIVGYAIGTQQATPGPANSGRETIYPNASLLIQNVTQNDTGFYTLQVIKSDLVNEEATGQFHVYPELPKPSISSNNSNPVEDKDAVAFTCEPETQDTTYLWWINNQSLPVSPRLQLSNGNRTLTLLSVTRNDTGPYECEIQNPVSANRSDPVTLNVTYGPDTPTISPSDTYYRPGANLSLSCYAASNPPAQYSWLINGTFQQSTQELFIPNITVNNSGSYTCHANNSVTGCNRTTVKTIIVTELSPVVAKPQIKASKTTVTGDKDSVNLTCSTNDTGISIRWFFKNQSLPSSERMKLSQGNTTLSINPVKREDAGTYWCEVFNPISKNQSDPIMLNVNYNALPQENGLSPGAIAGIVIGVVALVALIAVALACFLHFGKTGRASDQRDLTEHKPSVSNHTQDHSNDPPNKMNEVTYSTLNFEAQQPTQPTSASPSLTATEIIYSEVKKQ

T4: 6xHis-A3-B3 huCEACAM5 (human, UniProt P06731 501-685, N-linked glycans (seven predicted sites))
T4 construct: For cryo-EM it was expressed in Expi293F GnTI- cells; also called hCEACAM5-A3-B3 construct; human CEACAM5 A3-B3 domain protein
T4 sequence: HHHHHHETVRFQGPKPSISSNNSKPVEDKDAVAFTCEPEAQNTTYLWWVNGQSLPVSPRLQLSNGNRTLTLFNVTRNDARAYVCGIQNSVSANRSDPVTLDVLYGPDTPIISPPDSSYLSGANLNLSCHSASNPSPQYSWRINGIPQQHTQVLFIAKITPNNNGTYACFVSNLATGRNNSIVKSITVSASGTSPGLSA


Columns and labels:
[1] = molecular target: T1, human CEACAM5 on cells; experiment: cell binding, MKN45 cells
[2] = molecular target: T1, human CEACAM5 on cells; experiment: FACS on BxPC3 cells
[3] = molecular target: T1, human CEACAM5 on cells; experiment: FACS on MKN45 cells
[4] = molecular target: T1, human CEACAM5 on cells; experiment: FACS on LS174T cells
[5] = molecular target: T2, human CEACAM6 on HCT116 cells; experiment: flow cytometry on HCT-116 (CEACAM-6) cells
[6] = molecular target: T3, human CEACAM1 on CHO-S cells; experiment: flow cytometry, CHO-S cells overexpressing human CEACAM1
[7] = molecular target: T4, 6xHis-A3-B3 huCEACAM5; experiment: SPR Biacore 8K 37C, mAb captured on anti-human Fc, antigen analyte, 1:1 Langmuir fit
Description: SPR analyses were conducted at 37° C. using a Biacore 8K instrument primed with 1×HBSP+ running water and docked with a CM5 sensor chip equilibrated to room temperature, followed by re-priming of the instrument. The chip surface was activated by injecting an ethyl(dimethylaminopropyl) carbodiimide (EDC)/N-hydroxysuccinimide (NHS) mixture for 7 minutes at 10 μL/min. The activated chip surface was then immobilized with an anti-human Fc capture reagent (at 25 μg/mL in acetate pH 5 buffer) injected on the chip surface for 7 minutes at 10 μL/min to yield an immobilization level of about 9000 RU. The remaining chip surface was blocked by injecting ethanolamine for 7 minutes at 10 μL/min.
The kinetic data for anti-CEACAM5 mAb:CEACAM5 binding were fit to a 1:1 Langmuir binding with Rmax to provide estimates of the kinetic and affinity values for the corresponding interactions.

[8] = molecular target: T4, 6xHis-A3-B3 huCEACAM5; experiment: cryo-EM of CEACAM5 A3-B3 with both Fabs
Description: Below is a description of the different steps and methods that were performed.
After the incubation period, 50 μl of complexing reaction solution was passed through a Bio-Spin 30 Size-exclusion chromatography column (30 kDa MWCO, BioRad) to remove any contaminants and Apo-CEACAM5. Prior to use, Bio-Spin 30 columns were equilibrated with 1×PBS, and samples were applied according to the manufacturer's protocol.

Binder | EC50 [1] | EC50 [2] | EC50 [3] | EC50 [4] | binding result [5] | binding result [6] | Kd [7] | binding result [8]
MBN001 (antibody, V domains shown, also called mAb MBN001; MBN001 parent) VH: QVQLVETGGGVVQPGRSLRLSCAASGITFSSHGMHWVRQSPGKGLEWVTFISYDGSYKSYVDSVKGRFAISRDNSKNTLYLQMNSLRPEDTAVYYCATGLTGTGAFDIWGQGTMVTVSS VL: not shown | 33.8 nM | 1.8 nM | 2.2 nM | 1.7 nM | no binding (tested: 300 nM) | no binding | 129 nM | –
Fab of bin 2 mAb (Fab, V domains shown, also called anti-CEACAM5 bin2 mAb Fab) VH: QVQLQESGPGLVKPSGTLSLTCAVSGGSISSSDWWSWVRQPPGKGLEWIGEIYHQGSTNYNPSLKSRVTISVDKSKNQFSLKLSSVTAADTAVYYCARASSSGYYGHDVWGQGTTVTVSS VL: DIQLTQSPSFLSASVGDRVTITCRASQGISTYLAWYQQKPGKAPKFLIYAEKTLQSGVPSRFSGSGSGTEFTLTISSLQPEDFATYYCQQLASYPFTFGPGTKVDIKR | – | – | – | – | – | – | – | binds
